Measured values as given in article PMC2241918.
Like-named read-outs stand apart in the source and are kept apart here.

Assays:
[1] = biological target: Cfr42I restriction endonuclease (Citrobacter freundii RFL42); assay: AUC
[2] = biological target: T1, Cfr42I restriction endonuclease (Citrobacter freundii RFL42, UniProt B0LL99 1-216); assay: EMSA
T1 sequence: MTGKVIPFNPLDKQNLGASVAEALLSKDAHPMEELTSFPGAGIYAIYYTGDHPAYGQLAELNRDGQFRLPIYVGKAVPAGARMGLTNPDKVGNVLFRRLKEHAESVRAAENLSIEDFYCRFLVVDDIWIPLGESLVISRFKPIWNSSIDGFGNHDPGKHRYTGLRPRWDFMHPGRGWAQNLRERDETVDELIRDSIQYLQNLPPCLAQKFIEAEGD

[3] = biological target: T1, Cfr42I restriction endonuclease; assay: EMSA; remark: listed apart in the source

Cfr42I restriction endonuclease (enzyme)
stoichiometry N [1]: 4

B1: 30/30 (dsDNA)
DNA 1: AGACCCACGCCACCGCGGTGGAGATTACGG
DNA 2: CCGTAATCTCCACCGCGGTGGCGTGGGTCT
binding result [2]: binds

B2: 16/16 (dsDNA)
DNA 1: CGCCACCGCGGTGGCG
DNA 2: CGCCACCGCGGTGGCG
binding result [3]: binds
